Source: patent US6991794B1, “Progenitor cell preservation factors and methods for and products of their use” (ImClone Systems Incorporated, priority 1997, dated 2006)

Test system: untransfected 3T3 cells
Test: untransfected parent 3T3 control cells (XTT)
Assay type: cell-based
Details: Example 5 serum-free conditions
Method: Specifically, 3T3 cells cultured in tissue culture plates (Becton Dickinson Labware, Lincoln Park, N.J.) were removed from the plates by washing cells twice in Hank's buffered saline solution (HBSS; Gibco Laboratories, Grand Island, N.Y.). Non-enzymatic cell dissociation buffer (Gibco) was added for 15 minutes at room temperature. The resulting cells were washed in medium. FLT3 3T3 cells were cultured at a final concentration of 3,000 cells per well in a volume of 100 μL of serum-defined medium containing […] rhIL1-α, 10% AIMV (Gibco, Grand Island, N.Y.) and 90% Dulbecco's modification of Eagle's medium (DMEM; Gibco) in 96 well plates. […] Proliferation and cell survival was quantitated by addition of XTT (2, 3-bis[Methoxy-4-nitro-5sulfophenyl]-2H-tetrazolium-5 carboxanilide inner salt) (Diagnostic Chemicals Ltd, Charlottetown, Prince Edward Island, Canada), which is a […] cleaved by actively respiring cells (Roehm et al., J. Immunol. Methods 142: 257-265, 1991). Proliferation and cell survival was quantitated spectrophotometrically using a Vmax kinetic plate reader (Molecular Devices Corp., Mountain View, Calif.), and recorded as either relative activity (units/mL) or as specific activity (units/mg). One unit of biological activity was defined as the reciprocal dilution at which half-maximal stimulation of cells is detected. […]

B1: Pv-FRIL: FRIL family mannose-binding lectin from Phaseolus vulgaris (red kidney bean), SEQ ID NO: 6 (protein)
chain: AQSLSFNFTKFDLDQKDLIFQGDATSTNNVLQLTKLDSGGNPVGASVGRVLFSAPFHLWENSMAVSSFETNLTIQISTPHPYYAADGFAFFLAPHDTVIPPNSWGKFLGLYSNVFRNSPTSENQSFGDVNTDSRVVAVEFDTFPNANIDPNYRHIGIDVNSIKSKETARWEWQNGKTATARISYNSASKKSTVTTFYPGMEVVALSHDVDLHAELPEWVRVGLSASTGEEKQKNTIISWSFTSSLKNNEVKEPKEDMYIANVVRSYTWINDVLSYISNKMYDALNNNHKYVRCSTCMLFMKKK
response of parent untransfected 3T3 cells: did not
